# Measured values from publication PMC11134550.
# Experiments:
# Test in all cases: SPR; Biacore T200; integrin (approx. 1000 RU) or TGFβRII (approx. 400 RU) amine-coupled to CM5 chip; galectin-3 2-fold serial dilutions injected (19.5-5000 nM integrins, 156.3-20000 nM TGFβRII), 30 μl/min, 20 °C, contact 120 s; HBS-P+ pH 7.4 ±1 mM MnCl2; steady-state fit, one-site specific binding; minimum number of binding sites = maximum response/Rmax
# [1] = target: recombinant human integrin αvβ1 (glycosylated) (human) (UniProt P06756)
# [2] = target: recombinant human integrin αvβ5 (glycosylated) (human) (UniProt P06756)
# [3] = target: recombinant human integrin αvβ6 (glycosylated) (human) (UniProt P06756)
substance,measurement,setting,value
recombinant human galectin-3 (expressed and purified for SPR) (from UniProt P17931 1-250) (natural protein),binding response relative to αvβ6,[1],2 fold
same,stoichiometry N (individual galectin-3 proteins),[1],> 16
same,binding response relative to αvβ6,[2],2 fold
same,stoichiometry N (individual galectin-3 proteins),[2],> 16
same,stoichiometry N (individual galectin-3 proteins),[3],> 8
